Like-named read-outs stand apart in the source and are kept apart here.

The source of these data is patent US20220218001A1, “REDOX ENZYMES IN ANIMAL FEED COMPOSITIONS” (Novozymes A/S, priority 2019, published 2022).

In data set [1] the target is T1, pepsin (Sus scrofa, UniProt P00791).
T1 construct: purchased Sigma P7000; host or cells: porcine gastric mucosa (natural source)
The experiment in a line: Gastric stability of superoxide dismutases (method of Example 10, gastric treatment with pepsin). The class given is in vitro ADME. The protocol:
retains only 26% of its activity upon gastric treatment in the presence of pepsin.
Two commercial SODs were tested as references: SOD-Mn, from E. coli Sigma S5639 with a activity of 10240 U/mg EP and only 26% activity left after gastric press for 30 min; and SOD-Cu/Zn from Bovine expressed in E. coli Sigma S9697 with activity of 6108 U/mg EP and only 35% activity left after gastric press for 30 min.

Data set [2] can be described thus: Thermal stability of superoxide dismutases at different pH, Tm unfolding temperature (method of Example 11). The class given is physicochemical. The method, then: Tm: The term Tm, as used in the Examples refers to the temperature at which 50% of the protein molecules are unfolded and 50% of the protein molecules are folded.
Test were performed on the super oxide dismutases of the invention to measure the temperature at different acidity/alkalinity to determine the temperature at which the polypeptide unfolds and denatures. […] A further embodiment is directed to an animal feed additive comprising a fungal superoxide dismutase thermally stable at pH 7, when measured according to the method described in Example 11, such that protein unfolding (Tm) is 45° C. or more.

The nature of data set [3]: Superoxide dismutase activity (method of Example 9, pH 7.8). The class given is biochemical. The settings on record: SOD activity.
The target in data set [4] is T1, pepsin. In words: Gastric stability of superoxide dismutases (method of Example 10, gastric treatment with pepsin). It counts as in vitro ADME. This is another data set of the same source.
Data set [5] is described as follows: Growth performance of early weaned piglets fed SOD and CAT. The class given is in vivo. The method, then: The effect of antioxidant enzymes (SOD and CAT) alone at different doses and in combination on the growth performance of early weaned piglets was evaluated in a trial run. A total of eight treatments were tested during the study: 6 test groups: SOD (Product A, SEQ ID No. 1 at 1250 and 2500 U/kg), CAT (Product B, SEQ ID NO 7 and Product C, […]; […]); were compared against a Positive Control feed (fed with Avilamycin at 90.7 g/lb) and a Negative Control (standard ration). Each of treatments contained 12 replicates per treatment randomly assigned and containing 5 male piglets per replicate for a total number of 480 animals on study. Piglets were randomly assigned to treatments on Trial Day 0 (post-weaning at 21 days of age). At 42 days of age, live performance (growth weight gain and feed conversion) was determined. All rations were formulated with an increase of approximately 5-6% additional crude protein above normal commercial levels. Blood samples were collected at day 0, 14 and 42 to evaluate oxidative stress parameters at DSM. Gut tissue samples at the duodenum and ileum to evaluate gene expression linked to oxidative stress, and intestinal content (ileum and caecum), to study the microbiome population, were collected from 12 animals at the beginning of the trial (baseline) and one animal per pen (12 piglets×8 treatments) at day 14 and at day 42.
The commercial-simulated test model employed in this study used piglets reared under a normal swine industry Starter diet (Trial Day 0-21) and Grower diet (Trial Day 21-42), reared on slatted floors. Ration formulations were conducted via computer-generated linear regression program that simulates formulations conducted during practical swine production techniques. Treatments were tested in male piglets. Piglets were continuously fed their experimental diets from time of placement on Trial Day 0 to Trial Day 42.
Piglets were weighed and randomly placed into each pen on Trial Day 0 and fed their respective diets. Each pen had sufficient floor density, feeder and waterer space for each grow-out area for the piglets. Following 42 days of grow-out, piglets were weighed, feed consumption determined, and feed conversion (feed consumed/[…]) calculated.
A total of 500 male piglets (a sufficient number to ensure availability of at least 480 healthy male piglets for the conduct of the study) were obtained from a swine breeder on Trial Day 0 (upon weaning, when the piglets were 21 days of age). Piglets were fed their respective treatment feed ad libitum from Trial Day 0 to Trial Day 42.
Each experimental test unit of swine pens was housed in separated pens, located in a room containing forced air heaters with a cross-house ventilation system. Piglets were placed in a 6 ft×6 ft pen floor area with a minimum of 9.0 ft^2 per piglet (without feeder and waterer space) provided. At least two nipple drinkers per pen (via well water) provided water. Piglets were observed daily for overall health, behavior and/or evidence of toxicity, and environmental conditions. Temperature in the test facility was checked daily. Drinking water and feed were confirmed to be provided ad libitum. No type of medication (other than test material) was administered during the entire feeding period.
Live performance body weights and feed intakes were collected on Days 0, 14, 21, and 42 during the growing period. Weight gain, feed intake, feed:gain ratio (feed efficiency) were calculated for 0-42 days of age between weaning and Trial Day 42. Differences between piglets fed control and test groups were statistically evaluated at P<0.05 in a typical ANOVA analysis of variance test model, employing Treatment×Replicate RCB (Randomized Complete Block). Control group was considered to be the following: Treatment 2, containing Avilamycin at 90.7 g/lb.
Diets were fed in two feed phases: Starter diet (0-21 days of age) and Grower diet (21-42 days of age). All diets were offered ad libitum, without restriction. […]

A short description of data set [6]: Piglet trial, growth performance d0-42. The class given is in vivo. The settings on record: piglets, days 0-42. The text has this:
FIG. 17: illustrates the Conversion Ratio (FCR) in piglets from days 0-42. There was significant difference observed in growth performance between positive and negative control.

T1 sequence (P00791 60-385): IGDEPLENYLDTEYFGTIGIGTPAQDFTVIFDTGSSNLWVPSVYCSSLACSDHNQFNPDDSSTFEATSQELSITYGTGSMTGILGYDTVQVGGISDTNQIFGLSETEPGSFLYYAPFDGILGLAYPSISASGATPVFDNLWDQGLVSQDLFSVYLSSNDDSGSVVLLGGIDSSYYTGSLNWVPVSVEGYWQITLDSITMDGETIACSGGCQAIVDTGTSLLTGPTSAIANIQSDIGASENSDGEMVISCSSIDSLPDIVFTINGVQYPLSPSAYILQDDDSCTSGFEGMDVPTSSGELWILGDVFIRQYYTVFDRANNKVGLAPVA

Consider “S9697 Bovine Cu/Zn SOD SIGMA: commercially available superoxide dismutase from bovine erythrocytes and expressed in E. coli of sequence A”, for which the “activity left after gastric press for 30 min” value in the data set with pepsin [1] was determined as 35%. Besides, in the data set with pepsin [1], the “activity retained upon gastric treatment in the presence of pepsin” value came to 26%. Further, in the data set with pepsin [1], the “loss of activity under gastric stability studies” value amounted to 65%. Further, the “activity retained at 50° C.” value in data set [2] (50° C., method of Example 11) was “very little”. The “Tm (unfolding temperature)” value in data set [2] (pH 3) was found to be 50.8 °C; in data set [2] (pH 4), 59.3 °C; in data set [2] (pH 5), 63.9 °C; in data set [2] (pH 6) it was 66.2 °C; in data set [2] (pH 7), 65.2 °C; in data set [2] (pH 8) it was 63.1 °C. The “Tm (unfolding temperature)” value in data set [2] (pH 9) was 61.0 °C; in data set [2] (pH 10), 57.0 °C. In data set [3], the “Relative Activity Unit (U/mg EP)” value was 6108 U/mg EP. In addition, the “Gastric stability after 15 min (remaining activity, approx, %)” value with pepsin [4] (0.25 h) turned out to be 35%.

As for `COC[C@H]1O[C@@H](OC2OC[C@@H]3O[C@]4(O[C@H]3[C@H]2OC(=O)C(C)C)O[C@H](C)[C@@](O)(C(C)=O)[C@@H]2OCO[C@H]24)[C@@H](OC)[C@@H](O)[C@@H]1O[C@@H]1O[C@H](C)[C@H](OC)[C@H](O[C@H]2C[C@@]3(C)OC4(C[C@@H](O)[C@H](O[C@H]5C[C@@H](O)[C@H](OC(=O)c6c(C)c(Cl)c(O)c(Cl)c6OC)[C@@H](C)O5)[C@@H](C)O4)O[C@@H]3[C@@H](C)O2)[C@H]1O` (stereo partly drawn) [T2, Avilamycin], the “feed conversion (FCR)” value in data set [5] (d0-d42, vs Negative Control, SOD+CAT 400:100 U/kg) is listed as “improved”. In data set [5] (piglets, day 0-14), the “Average Body Wt. Gain (kg) Day 0-14” value is recorded as 3.720 kg, the “Feed Conversion Corrected Day 0-14” value was determined as 1.215, the “Feed Intake (kg/pig) Day 0-14” value was 4.52 kg/pig and the “Mortality % Day 0-14” value stood at 0.000%. Moreover, in data set [5] (piglets, day 14), the “Average Body Wt. (kg) Day 14” value amounted to 9.215 kg and the “Body Weight Coefficient of Variation (Day 14)” value was found to be 4.700.

B1: Catalase: Catalase fed alone in the piglet trial of FIG. 17 (protein)
chain: MRHFWLLPAVAGIAGAQCPYLSGEMSFTQEQDNAGDTIEVTEQTIDNTLYVNDTGSYMTTDFGTPISDQYSLKAGRRGPTLLEDFIFRQKLQRFDHERVPERVVHARGAGAYGTFKSYADWSNVTAADFLSANEKETPMFCRFSTVVGFRGSVDTARDVHGHACRFYTDEGNYDIVGINFAPFFIQDAIQFPDLVHAIKPMPNNEIPQAATAHTSAWDFFSQQSTALHSALWLMSGNGIPRSFRHMNGYGVHSFRFVAANGTSKVVRYRWKSQQGVASLVWEEAQAAAGKNSDYHRQDLYNAIANGHYPKYELQAQIMDEADMLRFGFDLLDPTKLVPEEVVPYTPLGMMELNANPTNYFAEVEQAGFQPGHVVPGIDFTDDPLLQGRLFSYLDTQLTRHGGPNFEQIPVNRPRKPVHNNNRDGFGQQQIPTNNWAYTPNTMSNGYPMQANQTHGHGFFTSPYRYASGHLIREPSPTFHDHWSQPAMFWNSLIPAEQQMVVNAIVFENSKVNSPHVRKNVVNQLNMVNNNLAVRVARGLGLDEPSPNPTYYTSNKTSNVGTFGKPLLSIEGLQVGFLASNSHPESIKQGQAMAAQFSAAGVDLNIVTEAYADGVNTTYALSDAIDFDALIIADGVQSLFASPSLANQMNSTATSTLYPPARPYQILVDSFRYGKPVAAVGSGSAALKNAGIDTSRSGVYTGSSETTENIAKEVLKGLYTFRFVDRFALDE
modifications: Aspergillus niger; mat_peptide (1)..(740)
As to B1, the “Feed Conversion Ratio (FCR)” value in data set [6] is reported as “significantly improved the FCR”.

B2: SEQ ID NO 35: superoxide dismutase; donor Trichoderma rossicum in b755, Trichoderma sp-44174 in b566 (protein)
chain: MRASGILTVLSLAVSSCVAEKDAPIVTGNPHSVEYKATLPKKPFFSNAALVGNVKGYVSAVAAPSGKGVRFSVQFENFPKSGGPFMYHIHEEPATNGNCTSTLAHLDPYHRGETPACDSSKPETCQVGDLSGKYGKITSDPFVAEYFDLYTSLQPGSPAFFGNRSIVVHYANKTRLTCANFAKLPVSDTATKAHTTTSAHHTVIHGPAASGGRHNTTSSHNITGPHYTTGSHHTTDVSPTGSLNPTGIVTAPGSPTTPATFTTVAAGGSASATSSIVPFPGAASGNRVSLALLSGVVAAMFFSL
modifications: Trichoderma sp-44174
notes: superoxide dismutase; donor Trichoderma rossicum, Trichoderma sp-44174 in b566
B2: the “activity retained under gastric stability studies” value with pepsin [1] is recorded as “at least 40%”. Besides, the “Relative Activity Unit (U/mg EP)” value in data set [3] is listed as about 3000 U/mg EP.

B3: SEQ ID NO 37: superoxide dismutase; donor Trichoderma sp-54723 in b755, Trichoderma rossicum in b566 (protein, listed as Trichoderma rossicum)
chain: MRASGILAVLSLAVSGCIAEKDAPIVTGNPHSVEYKATLPKKPFFSNAALVGNVKGYVSAVAAPSGKGVRFSVQFENFPKSGGPFMYHIHEEPATNGNCTSTLAHLDPYHRGETPACDSSKPETCQVGDLSGKYGKITSDPFVAEYFDLYTSLQPGSPAFFGNRSIVVHYANKTRLTCANFAKLPVSDTATKAHTTTSAHHTVIHGPAASGGRHNTTSSHNITGPHYTTGSHHTTDVSPTGSLNPTGIVTAPGSPTTPATFTTVAAGGSASATSSIVPFPGAASGNRVSLALLSGVVAAMFFSL
For B3, the “activity retained under gastric stability studies” value with pepsin [1] was “at least 40%”.

B4: SEQ ID NO 18: superoxide dismutase from Cladobotryum sp. (protein)
chain: MARQGLFLASLLIFPFASCAASEDPTGSKPQFASIPDSQQALLGSFSSTMSVSTFSLPALPYAYDALEPSISAQIMELHHSKHHQTYVNNLNNALKSYFVAISANDVPSQIALQAAVKFNGGGHINHSLFWENLCPATSPDADPQSAPTLAAEISKTWGSLEGFKDAMSKALLGLQGSGWGWLVKDGRALRIVTTKDQDPVVGGEVPIFGIDMWEHAYYLQYLNGKAAYVENIWKVINWKTAERRFIGDRDDAFKILKASI
modifications: Cladobotryum sp
Regarding B4, in the data set with pepsin [1], the “activity retained under gastric stability studies” value is recorded as “at least 40%”.

B5: S5639 from Sigma Mn-SOD Escherichia coli: commercially available bacterial (from E. coli) Mn-SOD (protein, UniProt P00448 2-206, looked up)
Superoxide dismutase [Mn]: SYTLPSLPYAYDALEPHFDKQTMEIHHTKHHQTYVNNANAALESLPEFANLPVEELITKLDQLPADKKTVLRNNAGGHANHSLFWKGLKKGTTLQGDLKAAIERDFGSVDNFKAEFEKAAASRFGSGWAWLVLKGDKLAVVSTANQDSPLMGEAISGASGFPIMGLDVWEHAYYLKFQNRRPDYIKEFWNVVNWDEAAARFAAKK
With B5, the “loss of activity under gastric stability studies” value with pepsin [1] is recorded as 57%. For the same molecule, the “activity left after gastric press for 30 min” value in the data set with pepsin [1] (30 min) is 26%. In addition, the “Relative Activity Unit (U/mg EP)” value in data set [3] is recorded as 10240 U/mg EP. Further, the “Gastric stability after 15 min (remaining activity, approx, %)” value with pepsin [4] (after 15 min, method of Example 10) is given as 26%.
